These results are taken from publication PMC8479507 (Cell Reports, 2021).

The assay has as its target SARS-CoV-2 receptor-binding domain (RBD) (SARS-CoV-2 (Wuhan-Hu-1), UniProt P0DTC2). The experiment in a line: cell-based or functional assay.

B1: monoclonal antibody 910-30, IgG (antibody, V domains shown)
VH: EVQLVESGGGLVQPGGSLRLSCAASGFTVSSNYMSWVRQAPGKGLEWVSLIYSGGSTYYADSVKGRFTISRHNSKNTLYLQMNSLRAEDTAVYYCARIYGDYAWGQGTLVTVSS
VL: not shown
In the case of B1, the “IC50 of neutralisation of authentic SARS-CoV-2; blocks RBD binding to ACE2” value was 0.142 µg/mL.
